What all share (assay): flow cytometry on cells carrying the target, antibody or DVD-Ig at 2 ug/mL
(A flow cytometer gives signals particle by particle.)

The target in assay [1] is T1, CD-22 on the cell surface (human, UniProt P20273 20-847).
T1 construct: whole, on cells

Assay [2] deals with T2, CD-19 on the cell surface (human, UniProt P15391 20-556).
T2 construct: whole, on cells
T2 sequence (looked up): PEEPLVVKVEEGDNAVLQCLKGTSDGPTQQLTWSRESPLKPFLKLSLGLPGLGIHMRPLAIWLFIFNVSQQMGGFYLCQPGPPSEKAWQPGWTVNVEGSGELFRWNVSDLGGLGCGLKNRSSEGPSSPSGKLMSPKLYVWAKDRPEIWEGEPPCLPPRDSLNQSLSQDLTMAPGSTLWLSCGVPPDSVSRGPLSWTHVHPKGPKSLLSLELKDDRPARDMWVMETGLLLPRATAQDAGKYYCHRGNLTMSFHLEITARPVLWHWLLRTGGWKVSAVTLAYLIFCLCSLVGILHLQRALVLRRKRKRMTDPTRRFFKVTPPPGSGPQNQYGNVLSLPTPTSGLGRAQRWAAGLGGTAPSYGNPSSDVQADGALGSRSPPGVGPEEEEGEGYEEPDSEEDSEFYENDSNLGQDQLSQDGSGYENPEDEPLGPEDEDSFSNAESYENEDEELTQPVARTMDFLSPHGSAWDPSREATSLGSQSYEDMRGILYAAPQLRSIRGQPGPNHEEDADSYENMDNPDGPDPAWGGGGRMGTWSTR

The target of assay [3] is T3, CD-80 on the cell surface (human, UniProt P33681 35-288).
T3 construct: whole, on cells
T3 sequence (looked up): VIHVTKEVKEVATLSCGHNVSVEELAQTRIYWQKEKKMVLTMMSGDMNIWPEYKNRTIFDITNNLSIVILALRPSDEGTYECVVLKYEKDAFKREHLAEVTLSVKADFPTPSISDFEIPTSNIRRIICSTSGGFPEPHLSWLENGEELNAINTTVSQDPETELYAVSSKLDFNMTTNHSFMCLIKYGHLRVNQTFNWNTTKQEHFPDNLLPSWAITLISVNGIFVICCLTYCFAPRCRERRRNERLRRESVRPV

The source of these data is patent US20120263722A1 (AbbVie / Abbott, published 2012).

B1: AB008 (antibody, V domains shown)
VH: QVQLVQSGAEVKKPGSSVKVSCKASGYTFTSYWLHWVRQAPGQGLEWIGYINPRNDYTEYNQNFKDKATITADESTNTAYMELSSLRSEDTAFYFCARRDITTFYWGQGTTVTVSS
VL: DIQLTQSPSSLSASVGDRVTMSCKSSQSVLYSANHKNYLAWYQQKPGKAPKLLIYWASTRESGVPSRFSGSGSGTDFTFTISSLQPEDIATYYCHQYLSSWTFGGGTKLEIKR
notes: Parent antibody; also called AB008VH; AB008VL
On to B1, for which the “N-Terminal VD GEO MEAN (FACS geometric mean)” value (“N-Terminal VD GEO MEAN” for short) in assay [1] is 256.

B2: DVD1883 (bispecific antibody, human IgG1, kappa)
heavy: not shown
light: DIQLTQSPSSLSASVGDRVTMSCKSSQSVLYSANHKNYLAWYQQKPGKAPKLLIYWASTRESGVPSRFSGSGSGTDFTFTISSLQPEDIATYYCHQYLSSWTFGGGTKLEIKRTVAAPQIVLIQSPAIMSASPGEKVTMTCSASSSVSYMYWYQQKPGSSPRLLIYDTSNLASGVPVRFSGSGSGTSYSLTISRMEAEDAATYYCQQWSGYPYTFGGGTKLEIKRTVAAPSVFIFPPSDEQLKSGTASVVCLLNNFYPREAKVQWKVDNALQSGNSQESVTEQDSKDSTYSLSSTLTLSKADYEKHKVYACEVTHQGLSSPVTKSFNRGEC
notes: Outer domain anti-CD22 (AB008), inner domain anti-IL-6 (AB040); also called DVD1883H; DVD1883L
As to B2, the “N-Terminal VD GEO MEAN” value in assay [1] turned out to be 223.

B3: AB006 (antibody, V domains shown)
VH: QVQLQQSGAELVRPGSSVKISCKASGYAFSSYWMNWVKQRPGQGLEWIGQIWPGDGDTNYNGKFKGKATLTADESSSTAYMQLSSLASEDSAVYFCARRETTTVGRYYYAMDYWGQGTSVTVSS
VL: DILLTQTPASLAVSLGQRATISCKASQSVDYDGDSYLNWYQQIPGQPPKLLIYDASNLVSGIPPRFSGSGSGTDFTLNIHPVEKVDAATYHCQQSTEDPWTFGGGTKLEIKR
notes: Parent antibody; also called AB006VH; AB006VL
As to B3, the “N-Terminal VD GEO MEAN” value in assay [2] stood at 1570.

B4: DVD1879 (bispecific antibody, human IgG1, kappa)
heavy: not shown
light: DILLTQTPASLAVSLGQRATISCKASQSVDYDGDSYLNWYQQIPGQPPKLLIYDASNLVSGIPPRFSGSGSGTDFTLNIHPVEKVDAATYHCQQSTEDPWTFGGGTKLEIKRTVAAPQIVLIQSPAIMSASPGEKVTMTCSASSSVSYMYWYQQKPGSSPRLLIYDTSNLASGVPVRFSGSGSGTSYSLTISRMEAEDAATYYCQQWSGYPYTFGGGTKLEIKRTVAAPSVFIFPPSDEQLKSGTASVVCLLNNFYPREAKVQWKVDNALQSGNSQESVTEQDSKDSTYSLSSTLTLSKADYEKHKVYACEVTHQGLSSPVTKSFNRGEC
notes: Outer domain anti-CD19 (AB006), inner domain anti-IL-6 (AB040); also called DVD1879H; DVD1879L
On to B4, for which the “N-Terminal VD GEO MEAN” value in assay [2] came out at 1930.

B5: AB007 (antibody, V domains shown)
VH: QVQLQESGPGLVKPSETLSLTCAVSGGSISGGYGWGWIRQPPGKGLEWIGSFYSSSGNTYYNPSLKSQVTISTDTSKNQFSLKLNSMTAADTAVYYCVRDRLFSVVGMVYNNWFDVWGPGVLVTVSS
VL: ESALTQPPSVSGAPGQKVTISCTGSTSNIGGYDLHWYQQLPGTAPKLLIYDINKRPSGISDRFSGSKSGTAASLAITGLQTEDEADYYCQSYDSSLNAQVFGGGTRLTVLG
notes: Parent antibody; also called AB007VH; AB007VL
As to B5, the “N-Terminal VD GEO MEAN” value in assay [3] stood at 82.5.

B6: DVD1881 (bispecific antibody, human IgG1, kappa)
heavy: not shown
light: ESALTQPPSVSGAPGQKVTISCTGSTSNIGGYDLHWYQQLPGTAPKLLIYDINKRPSGISDRFSGSKSGTAASLAITGLQTEDEADYYCQSYDSSLNAQVFGGGTRLTVLGQPKAAPQIVLIQSPAIMSASPGEKVTMTCSASSSVSYMYWYQQKPGSSPRLLIYDTSNLASGVPVRFSGSGSGTSYSLTISRMEAEDAATYYCQQWSGYPYTFGGGTKLEIKRTVAAPSVFIFPPSDEQLKSGTASVVCLLNNFYPREAKVQWKVDNALQSGNSQESVTEQDSKDSTYSLSSTLTLSKADYEKHKVYACEVTHQGLSSPVTKSFNRGEC
notes: Outer domain anti-CD80 (AB007), inner domain anti-IL-6 (AB040); also called DVD1881H; DVD1881L
On to B6, for which the “N-Terminal VD GEO MEAN” value in assay [3] stood at 134.
